This note sets out measurements from US20260167699A1 (Chugai, published 2026).

Positions count from the first letter of the chain named. Numbers in names are those of the source. Like-named read-outs stand apart in the source and are kept apart here.

Assay [1] deals with T1, integrin αvβ3 (R & D Systems, Inc.) (UniProt P06756 31-992; P05106 27-718).
T1 construct: Bought protein
In words: ELISA on coated integrin αvβ3 (1 µg/mL), detection with HRP-labeled anti-human IgG antibody.
Protocol: The integrin αvβ3 binding of each molecule with the RGD (Arg-Gly-Asp) peptide inserted in the Fc region was assessed by ELISA (enzyme-Linked immunosorbent assay). Specifically, integrin αvβ3 (R & D Systems, Inc.) diluted to 1 μg/mL with a coating buffer (0.1 M NaHCO₃, pH 9.6) was added at a concentration of 100 μL/well to Nunc-Immuno™ MicroWell™ 96 well solid plates (Nunc) to immobilize the integrin αvβ3 to the plates. Each well of the antigen (integrin αvβ3)-immobilized plates was washed three times with 250 μL of a TBS solution containing 0.1 g/L calcium chloride and 0.1 g/L magnesium chloride (referred to as a TBS(+) solution). A TBS solution containing 5% BSA, 0.1 g/L calcium chloride, and 0.1 g/L magnesium chloride (referred to as a blocking solution) was added thereto at a concentration of 250 μL/well, and the plates were incubated at room temperature for 1 hour.
After removal of the blocking solution, each well was washed three times with a TBS(+) solution. […]
After removal of the HRP-labeled antibody solution, each well was washed three times with a TBS(+) solution. […] The absorbance of the solution whose reaction had been stopped was measured at a wavelength of 450 nm.

In assay [2] the target is T2, FcγRIa extracellular domain with C-terminal His tag (human, UniProt P12314 16-292).
T2 construct: extracellular domain
In words: SPR (Biacore), captured antibody, FcγR analyte, 1:1 Langmuir fit.
Protocol: (§1) The antibody of interest was analyzed for its interaction with FcγR using a BiaCore™ T100, BiaCore™ A100, or BiaCore™ 4000 surface plasmon resonance system (GE Healthcare Japan Corp.). The running buffer used was HBS-EP+ (GE Healthcare Japan Corp.). The assay temperature was set to 25° C. The sensor chips used were: a chip prepared by immobilizing antigenic peptides onto Series S Sensor Chip CM5 (GE Healthcare Japan Corp.) by the amine coupling method; a chip prepared by immobilizing antigenic peptides biotinylated in advance onto Series S Sensor Chip SA (certified) (GE Healthcare Japan Corp.) through their interaction; a chip prepared by immobilizing protein L (ACTIGEN, BioVision, Inc.) onto Series S Sensor Chip CM5 (GE Healthcare Japan Corp.); and a chip prepared by immobilizing protein A/G (Thermo Fisher Scientific K.K.) onto Series S Sensor Chip CM5 (GE Healthcare Japan Corp.). The antibody of interest was captured onto any of these chips and allowed to interact with FcγR diluted with a running buffer. The antibody captured on the chip was washed off through the reaction of 10 mM glycine-HCl (pH 1.5) to regenerate the chip, which was repetitively used.

The target in assay [3] is T3, FcγRIIa(R) extracellular domain with C-terminal His tag (human, UniProt P12318 34-217).
T3 construct: extracellular domain; polymorphic form R131; also called FcγRIIa R type
T3 sequence: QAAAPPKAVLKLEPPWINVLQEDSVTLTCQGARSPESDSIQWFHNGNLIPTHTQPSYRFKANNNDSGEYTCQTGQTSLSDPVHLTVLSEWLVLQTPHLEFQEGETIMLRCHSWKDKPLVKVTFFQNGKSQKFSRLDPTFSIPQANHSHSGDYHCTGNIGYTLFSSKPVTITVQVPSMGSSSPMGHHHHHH
The description is as above.
Protocol: as §1

Assay [4] concerns the target T4, FcγRIIa(H) extracellular domain with C-terminal His tag (human, UniProt P12318 34-217).
T4 construct: extracellular domain; polymorphic form H131; also called FcγRIIa H type
T4 sequence: T3 sequence with R134H
Described as above.
Protocol: as §1

Assay [5] addresses T5, FcγRIIIa(F) extracellular domain with C-terminal His tag (human, UniProt P08637 17-208).
T5 construct: extracellular domain; polymorphic form F158; also called FcγRIIIa F type
The description is as above.
Protocol: as §1

Assay [6] deals with T6, FcγRIIIa(V) extracellular domain with C-terminal His tag (human, UniProt P08637 17-208).
T6 construct: extracellular domain; polymorphic form V158; also called FcγRIIIa V type
The assay is described as above.
Protocol: as §1

Assay [7] concerns the target T2, FcγRIa extracellular domain with …. The assay is described as above. This is another data set of the same source.
Protocol: as §1
In assay [8] the target is T3, FcγRIIa(R) extracellular domain with …. Described as above. The source holds these as a separate data set.
Protocol: as §1
The target of assay [9] is T4, FcγRIIa(H) extracellular domain with …. The assay is described as above. This is another data set of the same source.
Protocol: as §1
For assay [10], the target named is T5, FcγRIIIa(F) extracellular domain with …. Described as above. This is another data set of the same source.
Protocol: as §1
For assay [11], the target named is T6, FcγRIIIa(V) extracellular domain with …. Described as above. The source holds these as a separate data set.
Protocol: as §1
For assay [12], the target named is T7, FcγRIIb extracellular domain with C-terminal His tag (human, UniProt P31994 43-217).
T7 construct: extracellular domain
T7 sequence: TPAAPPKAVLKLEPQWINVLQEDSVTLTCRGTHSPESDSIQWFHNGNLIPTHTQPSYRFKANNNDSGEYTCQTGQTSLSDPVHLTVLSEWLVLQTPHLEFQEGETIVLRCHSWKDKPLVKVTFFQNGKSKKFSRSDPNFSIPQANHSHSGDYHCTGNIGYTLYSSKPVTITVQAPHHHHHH
In words: SPR (Biacore), captured antibody, FcγR analyte, 1:1 Langmuir fit; naturally occurring IgG1 (not afucosylated).
Protocol: as §1

In assay [13] the target is T7, FcγRIIb extracellular domain with …. In words: SPR (Biacore), captured antibody, FcγR analyte, 1:1 Langmuir fit; afucosylated G1d; Table 8 reprint of Table 7.
Protocol: as §1
Assay [14] has the same target. In words: SPR (Biacore), captured antibody, FcγR analyte, 1:1 Langmuir fit; afucosylated antibody (same sequence as G1d, other glycoform).
Assay [15] concerns the target T8, FcγRIIIa extracellular domain with C-terminal His tag (allotype not given) (UniProt P08637 17-208, limits assumed).
T8 construct: extracellular domain; also called 3a
In words: SPR (Biacore), from the KD values of Table 5.

Assay [16] deals with T9, FcγRIIa H extracellular domain with C-terminal His tag (UniProt P12318 34-217, limits assumed).
T9 construct: extracellular domain; also called 2aH
T9 sequence: T3 sequence with R134H
In words: SPR (Biacore), as the text refers to Example 3.

Assay [17] concerns the target T10, FcγRIIa R extracellular domain with C-terminal His tag (UniProt P12318 34-217, limits assumed).
T10 construct: extracellular domain; also called 2aR
T10 sequence: T3 sequence
In words: SPR (Biacore), as the text refers to Example 3.

Assay [18] concerns the target T11, FcγRIIb extracellular domain with C-terminal His tag (UniProt P31994 43-217, limits assumed).
T11 construct: extracellular domain; also called 2b
T11 sequence: T7 sequence
In words: SPR (Biacore), as the text refers to Example 3.

Assay [19] has as its target T12, FcγRIa extracellular domain with C-terminal His tag (UniProt P12314 16-292, limits assumed).
T12 construct: extracellular domain; also called 1a
In words: SPR (Biacore), as the text refers to Example 3.

T2 sequence (P12314 other isoform, or with tags, fused parts or gaps): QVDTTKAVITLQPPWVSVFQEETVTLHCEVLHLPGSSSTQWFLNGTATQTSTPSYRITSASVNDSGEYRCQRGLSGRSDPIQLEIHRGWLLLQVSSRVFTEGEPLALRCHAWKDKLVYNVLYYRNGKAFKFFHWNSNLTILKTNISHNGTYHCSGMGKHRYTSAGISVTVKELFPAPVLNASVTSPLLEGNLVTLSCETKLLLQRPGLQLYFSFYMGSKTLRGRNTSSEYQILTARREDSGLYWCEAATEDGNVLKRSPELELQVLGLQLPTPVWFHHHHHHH
T6 sequence (P08637 other isoform, or with tags, fused parts or gaps): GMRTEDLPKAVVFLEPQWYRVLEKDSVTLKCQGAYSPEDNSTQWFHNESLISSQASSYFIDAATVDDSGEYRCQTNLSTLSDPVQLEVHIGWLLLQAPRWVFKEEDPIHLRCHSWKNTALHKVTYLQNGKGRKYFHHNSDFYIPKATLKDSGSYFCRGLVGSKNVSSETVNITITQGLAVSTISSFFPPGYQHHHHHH
T5 sequence (P08637 other isoform, or with tags, fused parts or gaps): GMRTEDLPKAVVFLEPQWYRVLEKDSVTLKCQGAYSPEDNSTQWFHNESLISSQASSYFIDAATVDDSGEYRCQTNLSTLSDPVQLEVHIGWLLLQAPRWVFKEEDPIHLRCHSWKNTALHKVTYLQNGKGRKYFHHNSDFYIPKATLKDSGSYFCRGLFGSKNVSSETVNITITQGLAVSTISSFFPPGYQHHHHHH
T12 sequence (P12314 other isoform, or with tags, fused parts or gaps limits assumed): as the sequence (P12314 other isoform, or with tags, fused parts or gaps) above
T1 sequence (P06756 31-992, chain 1 of 2): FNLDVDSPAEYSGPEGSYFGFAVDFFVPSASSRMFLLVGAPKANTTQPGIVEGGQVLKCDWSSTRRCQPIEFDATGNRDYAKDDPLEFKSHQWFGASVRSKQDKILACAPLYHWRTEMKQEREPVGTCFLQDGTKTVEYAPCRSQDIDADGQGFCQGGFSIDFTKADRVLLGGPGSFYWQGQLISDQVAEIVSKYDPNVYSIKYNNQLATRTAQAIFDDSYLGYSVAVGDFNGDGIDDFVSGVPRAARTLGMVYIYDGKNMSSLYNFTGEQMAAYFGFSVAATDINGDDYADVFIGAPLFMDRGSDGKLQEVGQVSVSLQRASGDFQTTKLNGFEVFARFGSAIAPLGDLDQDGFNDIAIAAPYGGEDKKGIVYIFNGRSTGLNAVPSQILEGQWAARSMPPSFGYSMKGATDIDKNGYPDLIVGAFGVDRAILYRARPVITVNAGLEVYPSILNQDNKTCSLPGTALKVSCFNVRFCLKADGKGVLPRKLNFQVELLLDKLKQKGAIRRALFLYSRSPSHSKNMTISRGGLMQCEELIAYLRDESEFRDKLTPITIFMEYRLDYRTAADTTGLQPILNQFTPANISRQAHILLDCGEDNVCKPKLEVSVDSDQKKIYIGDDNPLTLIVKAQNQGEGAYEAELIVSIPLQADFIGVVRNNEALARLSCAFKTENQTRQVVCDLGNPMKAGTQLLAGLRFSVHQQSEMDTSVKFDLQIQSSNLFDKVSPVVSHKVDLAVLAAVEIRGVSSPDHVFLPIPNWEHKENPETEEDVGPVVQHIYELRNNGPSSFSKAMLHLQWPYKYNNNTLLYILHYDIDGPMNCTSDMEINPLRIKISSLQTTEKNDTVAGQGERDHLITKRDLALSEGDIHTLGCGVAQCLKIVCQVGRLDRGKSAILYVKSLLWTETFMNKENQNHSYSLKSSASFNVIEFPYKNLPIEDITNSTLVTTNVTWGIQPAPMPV
T1 sequence (P05106 27-718, chain 2 of 2): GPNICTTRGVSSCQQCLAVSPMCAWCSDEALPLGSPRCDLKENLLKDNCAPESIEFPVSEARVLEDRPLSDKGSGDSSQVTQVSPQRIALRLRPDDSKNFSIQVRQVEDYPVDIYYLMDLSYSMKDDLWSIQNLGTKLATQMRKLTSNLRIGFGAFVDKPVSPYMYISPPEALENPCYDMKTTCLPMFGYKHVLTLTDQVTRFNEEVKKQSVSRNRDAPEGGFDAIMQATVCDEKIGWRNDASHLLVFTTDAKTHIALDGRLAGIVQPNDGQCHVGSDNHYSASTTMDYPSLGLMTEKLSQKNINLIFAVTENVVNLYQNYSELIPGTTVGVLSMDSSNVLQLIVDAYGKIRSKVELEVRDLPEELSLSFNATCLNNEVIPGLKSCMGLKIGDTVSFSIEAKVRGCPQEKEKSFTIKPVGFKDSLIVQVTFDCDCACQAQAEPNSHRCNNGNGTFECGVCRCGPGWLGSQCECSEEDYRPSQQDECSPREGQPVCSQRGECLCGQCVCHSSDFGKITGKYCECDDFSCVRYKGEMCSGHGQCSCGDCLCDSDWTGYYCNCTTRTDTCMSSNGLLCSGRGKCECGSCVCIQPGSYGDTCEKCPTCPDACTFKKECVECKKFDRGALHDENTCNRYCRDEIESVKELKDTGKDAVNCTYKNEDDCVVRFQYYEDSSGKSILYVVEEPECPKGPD

B1: H240-Kn125/H240-Hl076/L73-k0 (antibody, human IgG1, kappa)
heavy 1: QDQLVQSGAEVKKPGASVKVSCKASGFNIKDTYIQWVRQAPGQGLEWMGRIDPLRKQTKYREKFEGRVTITADTSTNTAYMELSSLRSEDTAVYYCVRSGREFDYWGQGTLVTVSSASTKGPSVFPLAPSSKSTSGGTAALGCLVKDYFPEPVTVSWNSGALTSGVHTFPAVLQSSGLYSLSSVVTVPSSSLGTQTYICNVNHKPSNTKVDKKVEPKSCDKTHTCPPCPAPEYQWGPMVFLFPPKPKDTLMISRTPEVTCVVVDVSDEEPEVKFNWYVDGVEVHNAKTKPREEQYNATYRVVSVLTVLHQDWLNGKEYKCKVSNKALPAPIEKTISKAKGQPREPQVCTLPPSRDELTKNQVSLWCLVKGFYPSDIAVEWESNGQPENNYKTTPPVLDSDGSFFLYSKLTVDKSRWQQGNVFSCSVMHEALHNHYTQKSLSLSP
heavy 2: QDQLVQSGAEVKKPGASVKVSCKASGFNIKDTYIQWVRQAPGQGLEWMGRIDPLRKQTKYREKFEGRVTITADTSTNTAYMELSSLRSEDTAVYYCVRSGREFDYWGQGTLVTVSSASTKGPSVFPLAPSSKSTSGGTAALGCLVKDYFPEPVTVSWNSGALTSGVHTFPAVLQSSGLYSLSSVVTVPSSSLGTQTYICNVNHKPSNTKVDKKVEPKSCDKTHTCPPCPAPELLGGPSVFLFPPKPKDTLMISRTPEVTCVVVDVSHEEPEVKFNWYVDGVEVHNAKTKPREEQYNSTYRVVSVLTVLHQDWLNGKEYKCKVSNDALPMPIEETISKAKGQPREPQVYTLPPSRCELTKNQVSLSCAVKGFYPSDIAVEWESNGQPENNYKTTPPVLDSDGSFFLVSKLTVDKSRWQQGNVFSCSVMHEALHNHYTQKSLSLSP
light: DIQMTQSPSSLSASVGDRVTITCRASQDIHKYIAWYQQKPGQAPRLLIQYTSTLQPGVPSRFSGSGSGTDYTFTISSLQPEDIATYYCLQYEQLRTFGGGTKVEIKRTVAAPSVFIFPPSDEQLKSGTASVVCLLNNFYPREAKVQWKVDNALQSGNSQESVTEQDSKDSTYSLSSTLTLSKADYEKHKVYACEVTHQGLSSPVTKSFNRGEC
notes: also called Hl076/Kn125; parent peptide
Take B1: the binding result in [1] is given as “no binding (tested: 100 µg/mL)”.

B2: H240-G1d/L73-k0 (antibody, human IgG1, kappa)
heavy: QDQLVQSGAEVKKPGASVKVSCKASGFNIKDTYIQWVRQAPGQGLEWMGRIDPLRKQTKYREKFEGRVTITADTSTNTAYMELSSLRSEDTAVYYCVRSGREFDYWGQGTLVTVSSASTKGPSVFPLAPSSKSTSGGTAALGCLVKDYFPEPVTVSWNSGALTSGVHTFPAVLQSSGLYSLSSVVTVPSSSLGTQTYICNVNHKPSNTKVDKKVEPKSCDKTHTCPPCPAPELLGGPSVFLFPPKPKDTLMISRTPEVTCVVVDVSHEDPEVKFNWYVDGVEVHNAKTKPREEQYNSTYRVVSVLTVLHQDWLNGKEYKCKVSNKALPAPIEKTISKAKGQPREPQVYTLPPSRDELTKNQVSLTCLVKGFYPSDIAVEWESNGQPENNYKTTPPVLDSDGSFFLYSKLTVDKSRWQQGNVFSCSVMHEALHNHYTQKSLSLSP
light: B1 light
notes: anti-epiregulin IgG1; also called H240-G1d/H240-G1d/L73-k0; naturally occurring IgG1
Turning to B2, the Kd in assay [2] amounted to 0.23 nM; in assay [3], 880 nM; in assay [4], 660 nM; in assay [5] it was 1400 nM; in assay [6], 310 nM; in assay [7], 0.23 nM. The Kd in assay [8] is 880 nM; in [9], 660 nM; in [10], 1400 nM; in assay [11], 310 nM; in assay [12], 6000 nM.

B3: H240-afucosyl_G1d/L73-k0 (antibody, human IgG1, kappa)
heavy: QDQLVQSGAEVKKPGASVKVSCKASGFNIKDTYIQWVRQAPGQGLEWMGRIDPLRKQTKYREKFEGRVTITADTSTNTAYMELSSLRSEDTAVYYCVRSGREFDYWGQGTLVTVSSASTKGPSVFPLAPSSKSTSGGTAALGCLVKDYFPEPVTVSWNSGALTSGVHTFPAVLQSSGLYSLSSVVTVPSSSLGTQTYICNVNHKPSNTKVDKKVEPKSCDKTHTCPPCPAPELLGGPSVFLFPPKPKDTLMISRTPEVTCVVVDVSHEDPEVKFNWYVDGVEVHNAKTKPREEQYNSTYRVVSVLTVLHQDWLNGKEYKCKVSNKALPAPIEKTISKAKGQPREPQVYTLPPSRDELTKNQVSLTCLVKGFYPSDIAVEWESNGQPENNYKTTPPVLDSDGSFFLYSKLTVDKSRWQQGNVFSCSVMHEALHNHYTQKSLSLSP
light: B1 light
modifications: afucosylated (fucose-deficient sugar chain)
notes: afucosylated form of the anti-epiregulin IgG1 H240-G1d/L73-k0; also called afucosylated antibody
As for B3, the Kd in assay [2] was 0.43 nM; in assay [3], 490 nM; in assay [4] it was 780 nM; in assay [5] it was 78 nM; in assay [6], 6.9 nM; in [7], 0.43 nM. Moreover, the Kd in assay [8] came out at 490 nM; in assay [9], 780 nM; in assay [10], 78 nM; in [11] it was 6.9 nM; in [13], 2600 nM; in assay [14] it was 2600 nM.

B4: GpH7-TA7/GpH7-B78/GpL16-k0 (antibody, human IgG1, kappa)
heavy 1: QVQLVQSGAEVKKPGASVTVSCKASGYTFTDYEMHWIRQPPGEGLEWIGAIDPKTGDTAYSESFQDRVTLTADKSTSTAYMELSSLTSEDTAVYYCTRFYSYTYWGQGTLVTVSSASTKGPSVFPLAPSSKSTSGGTAALGCLVKDYFPEPVTVSWNSGALTSGVHTFPAVLQSSGLYSLSSVVTVPSSSLGTQTYICNVNHKPSNTKVDKKVEPKSCDKTHTCPPCPAPEYLWGPSVFLFPPKPKDTLMISRTPEVTCVVVDVSHEDPEVKFNWYVDGVEVHNAKTKPREEQYNATYRVVSVLTVLHQDWLNGKEYKCKVSNKALPAPIEKTISKAKGQPREPQVYTLPPSRKELTKNQVSLTCLVKGFYPSDIAVEWESNGQPENNYKTTPPVLDSDGSFFLYSKLTVDKSRWQQGNVFSCSVMHEALHNRYTQKSLSLSP
heavy 2: B4 heavy 1 with Y232L, W234G, S237D, A296S, A328L, I330E, K354D, R433H, K437E
light: DIVMTQSPLSLPVTPGEPASISCQASESLVHSNRNTYLHWYLQKPGQSPQLLIYKVSNRFSGVPDRFSGSGSGTDFTLKISRVEAEDVGVYYCSQNTHVPPTFGQGTKVEIERTVAAPSVFIFPPSDEQLKSGTASVVCLLNNFYPREAKVQWKVDNALQSGNSQESVTEQDSKDSTYSLSSTLTLSKADYEKHKVYACEVTHQGLSSPVTKSFNRGEC
notes: L234Y, G236W, S298A in one H chain and S239D, A330L, I332E in the other
Turning to B4, the “fold FcγRIIIa-binding activity against GpH7-A5/GpH7-B78/GpL16-k0” value in assay [15] is at least 10 times.

B5: GpH7-B3/GpL16-k0 (antibody, human IgG1, kappa)
heavy: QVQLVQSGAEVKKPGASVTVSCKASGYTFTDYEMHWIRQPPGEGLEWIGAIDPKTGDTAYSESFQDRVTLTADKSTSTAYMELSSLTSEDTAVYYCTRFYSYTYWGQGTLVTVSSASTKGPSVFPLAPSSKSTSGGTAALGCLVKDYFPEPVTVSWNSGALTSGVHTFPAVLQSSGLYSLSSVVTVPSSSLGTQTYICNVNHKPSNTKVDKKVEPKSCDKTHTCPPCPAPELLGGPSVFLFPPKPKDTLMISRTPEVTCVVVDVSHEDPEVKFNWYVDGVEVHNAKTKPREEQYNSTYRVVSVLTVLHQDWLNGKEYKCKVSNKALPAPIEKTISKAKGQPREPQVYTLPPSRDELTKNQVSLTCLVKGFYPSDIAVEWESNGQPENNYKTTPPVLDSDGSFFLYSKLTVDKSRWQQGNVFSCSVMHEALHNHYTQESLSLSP
light: B4 light
notes: also called HoCon Ab
Regarding B5, the binding result in [16], in [17], in assay [18] and in [19] was “binds” in each case.
